Experimental data from patent publication US20220340636A1.

Tests used:
[1] = biological target: human insulin receptor (hIR) (human) (UniProt P06213); assay: cell-based or functional assay
[2] = biological target: solubilised immuno-captured human IR (isoform B) (human) (UniProt P06213)
[3] = biological target: solubilised immuno-captured human IR (isoform B) (human) (UniProt P06213); assay: competition binding on human IR-B (FIG. 2); reference PTM-free sCon-Ins G1
[4] = biological target: human IR-B overexpressed on NIH 3T3 mouse fibroblast cells (human) (UniProt P06213); assay: cell-based or functional assay
[5] = biological target: human insulin receptor (hIR) (human) (UniProt P06213); assay: binding to hIR, assay not described at this place; reference human insulin

“B10E, B20 biphenyl DOI analogue (ligand)” gave a fold higher potency than N10E, B20Y DOI [1] of 3 fold, a fold increase of the potency of DOI [1] of 100 fold and a percent of the potency of human insulin [1] of 10%.
“DOI analogue with B10 Glu and B20 Tyr (ligand)” was tested, and the fold increase in potency compared to B20 Tyr alone [1] was 5 fold.
With B20 Tyr DOI analogue (ligand) the fold increased potency in hIR activation (against DOI) [1] was 5 fold.
In the case of sCon-Ins G1 (ligand), the fold less active than hIns [2] is reported as 30 fold, the log [IC50 (nM)] [2] is reported as 1.24 log nM and the fold more active than the PTM-free analogue [3] is reported as 4 fold.
hIns[TyrB15, TyrB20, DOI] (ligand) gave a fold more active than hIns[DOI], Akt phosphorylation assay [4] of 5 fold and a fold increased potency in hIR activation (against DOI) [1] of 5 fold.
Work on Con-Ins G1 (ligand) yielded a fold less affinity than human insulin [5] of 30 fold.
